From publication PMC10716038, “Talin and kindlin use integrin tail allostery and direct binding to activate integrins” (Nature Structural & Molecular Biology, 2023) come the findings set out here.

The labels stand for the following.
B2: talin-1 head domain (THD1) (domain or fragment)
chain: MVALSLKISIGNVVKTMQFEPSTMVYDACRMIRERIPEALAGPPNDFGLFLSDDDPKKGIWLEAGKALDYYMLRNGDTMEYRKKQRPLKIRMLDGTVKTIMVDDSKTVTDMLMTICARIGITNHDEYSLVRELMEEKKDEGTGTLRKDKTLLRDEKKMEKLKQKLHTDDELNWLDHGRTLREQGVEEHETLLLRRKFFYSDQNVDSRDPVQLNLLYVQARDDILNGSHPVSFDKACEFAGFQCQIQFGPHNEQKHKAGFLDLKDFLPKEYVKQKGERKIFQAHKNCGQMSEIEAKVRYVKLARSLKTYGVSFFLVKEKMKGKNKLVPRLLGITKECVMRVDEKTKEVIQEWSLTNIKRWAASPKSFTLDFGDYQDGYYSVQTTEGEQIAQLIAGYIDIILKKKKS

Values joined by “and” are separate entries in the source; they are usually repeats but may differ in a detail not shown here. Equal values may be shown once. Read-outs that look alike come from different tables or passages of the source. No end group written: not given here.

In experiment [1] the target is ATTO 488-labelled β1–spacer–CT (UniProt P05556). Kind of experiment: MST; as a7, with a second unlabelled protein present at near-saturating concentration (named in the quantity or in the printed words); apparent constants (Kd,app*).
Experiment [2] deals with ATTO 488-labeled β1–spacer–CT (UniProt P09055). Kind of experiment: MST; apparent; THD1 titrated to 488–β1-spacer-CT in the presence of 30-35 µM KIND2; MST buffer.
The target of experiment [3] is ATTO 488-labelled β1–spacer–CT (UniProt P05556). Kind of experiment: MST; ATTO 488-labelled β-CT peptide (50–200 nM) held constant, one unlabelled protein titrated; 20 mM Tris pH 7.5, 200 mM NaCl, 1 mM TCEP, 0.05% Tween-20; apparent affinities (near-saturation only).
For experiment [4], the target named is ATTO 488-labeled β1–spacer–CT (UniProt P09055). Kind of experiment: MST; unlabelled protein titrated to 50-200 nM ATTO 488-labelled β-CT peptide, no third protein; 20 mM Tris pH 7.5, 200 mM NaCl, 1 mM TCEP, 0.05% Tween-20; Kd of individual titrations (in S0002 mean and sd, n = 2).
Experiment [5] has as its target ATTO 488-labelled β1-CT^Y795A (UniProt P05556). Kind of experiment: MST; ATTO 488-labelled β-CT peptide (50–200 nM) held constant, one unlabelled protein titrated; 20 mM Tris pH 7.5, 200 mM NaCl, 1 mM TCEP, 0.05% Tween-20; apparent affinities (near-saturation only).
The target of experiment [6] is ATTO 488-labelled β1-CT^Y783A (UniProt P05556). The description is as above.
Sequence of ATTO 488-labelled β1-CT^Y783A (P05556 752-798 Y783A): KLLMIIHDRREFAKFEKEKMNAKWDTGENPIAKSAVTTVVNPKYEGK
In experiment [7] the target is ATTO 488-labelled β1-CT (488–β1-CT) (UniProt P05556). The description is as above.
The target of experiment [8] is β1-TM–CT Y783A (THD1-binding impaired) in nanodiscs (UniProt P09055). Put plainly: flow cytometry-based reporter-displacement assay (FC-RDA) on beads; biotinylated TM–CT in 10% PIP3/90% DMPC nanodiscs on streptavidin beads; reporter 50 nM 647–KIND2, unlabelled competitor titrated; 20 mM Tris pH 7.5, 200 mM NaCl, room temperature; IC50 of individual experiments; charged lipids contribute to the binding.

Experiment [9] addresses ATTO 488-labeled β1–spacer–CT (UniProt P09055). Put plainly: MST; unlabelled protein titrated to 50-200 nM ATTO 488-labelled β-CT peptide, no third protein; 20 mM Tris pH 7.5, 200 mM NaCl, 1 mM TCEP, 0.05% Tween-20; Kd of individual titrations (in S0002 mean and sd, n = 2). The source holds these as a separate data set.
In experiment [10] the target is ATTO 488-labelled β1–spacer–CT (UniProt P05556). Put plainly: MST; ATTO 488-labelled β-CT peptide (50–200 nM) held constant, one unlabelled protein titrated; 20 mM Tris pH 7.5, 200 mM NaCl, 1 mM TCEP, 0.05% Tween-20; apparent affinities (near-saturation only). This is another data set of the same source.
The target of experiment [11] is ATTO 488-labeled β1–spacer–CT (UniProt P09055). Put plainly: MST; apparent; KIND2-Y13A titrated to 488–β3-CT or KIND2 to 488–β1-spacer-CT in the presence of 300-400 µM THD1; MST buffer.
Experiment [12] deals with T1, α5-TM lacking the cytoplasmic domain (tailless α5-TM) in nanodiscs (UniProt P11688 993-1025, biotin (biotin-maleimide)).
T1 chain: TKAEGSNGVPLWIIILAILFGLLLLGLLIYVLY
Kind of experiment: FACS; 10% PIP3 nanodiscs. For orientation: In flow cytometry, cells or beads pass a laser one at a time.

In experiment [13] the target is T2, β3 transmembrane and cytoplasmic tail polypeptide (β3-TM–CT) in nanodiscs (UniProt O54890 715-787, biotin (biotin-maleimide)).
T2 chain: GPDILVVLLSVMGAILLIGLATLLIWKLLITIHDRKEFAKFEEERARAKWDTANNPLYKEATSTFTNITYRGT
Put plainly: FACS; 10% PIP3 nanodiscs.

Experiment [14] has as its target T3, β1-TM–CT Y783A (THD1-binding impaired) in nanodiscs (UniProt P09055 726-798, Y783A, biotin (biotin-maleimide)). Kind of experiment: FACS; 10% PIP3 nanodiscs.
Experiment [15] concerns the target T4, β1 transmembrane and cytoplasmic tail polypeptide (β1-TM–CT) in nanodiscs (UniProt P05556 726-798, biotin (biotin-maleimide)).
T4 chain: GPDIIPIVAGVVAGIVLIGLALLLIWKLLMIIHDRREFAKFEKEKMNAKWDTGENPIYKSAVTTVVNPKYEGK
Put plainly: FACS; 10% PIP3 nanodiscs.

Experiment [16] addresses T1, α5-TM lacking the cytoplasmic domain …. Put plainly: FACS; 10% PIP2 nanodiscs.
For experiment [17], the target named is β1-TM–CT Y795A (KIND2-binding impaired) in nanodiscs (UniProt P09055 726-798, Y795A, biotin (biotin-maleimide)). Put plainly: FACS; 10% PIP2 nanodiscs.
The target of experiment [18] is T2, β3 transmembrane and cytoplasmic tail …. Kind of experiment: FACS; 10% PIP2 nanodiscs.
In experiment [19] the target is T3, β1-TM–CT Y783A (THD1-binding impaired) …. Put plainly: FACS; 10% PIP2 nanodiscs.
Experiment [20] addresses T4, β1 transmembrane and cytoplasmic tail …. Put plainly: FACS; 10% PIP2 nanodiscs.
Experiment [21] deals with B2. Kind of experiment: MST.
The target of a further experiment is T5, kindlin-2 (KIND2) (UniProt Q8CIB5 1-680).
T5 chain: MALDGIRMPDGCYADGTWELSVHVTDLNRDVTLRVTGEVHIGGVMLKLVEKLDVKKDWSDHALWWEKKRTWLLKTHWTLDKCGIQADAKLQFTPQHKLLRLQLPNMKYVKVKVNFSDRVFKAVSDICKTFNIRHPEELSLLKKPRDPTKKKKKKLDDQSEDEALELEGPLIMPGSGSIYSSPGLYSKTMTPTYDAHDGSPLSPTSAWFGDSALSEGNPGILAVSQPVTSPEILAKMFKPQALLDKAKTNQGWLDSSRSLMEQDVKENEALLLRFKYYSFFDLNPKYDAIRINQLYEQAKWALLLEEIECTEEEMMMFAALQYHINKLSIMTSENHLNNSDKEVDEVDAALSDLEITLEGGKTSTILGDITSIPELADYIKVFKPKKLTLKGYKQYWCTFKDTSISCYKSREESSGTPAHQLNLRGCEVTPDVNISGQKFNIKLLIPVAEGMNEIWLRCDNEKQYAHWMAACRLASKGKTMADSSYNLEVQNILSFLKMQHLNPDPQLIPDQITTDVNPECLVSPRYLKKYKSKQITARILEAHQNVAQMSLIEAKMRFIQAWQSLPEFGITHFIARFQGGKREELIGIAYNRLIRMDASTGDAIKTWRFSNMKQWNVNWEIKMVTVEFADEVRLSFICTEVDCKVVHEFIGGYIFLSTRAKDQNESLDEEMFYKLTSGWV
Put plainly: MST.

Sequence of ATTO 488-labelled β1-CT^Y795A (P05556 752-798 Y795A): as the sequence (P05556 752-798 Y783A) above, with A32Y, Y44A counted along it

In the case of “talin-1 head domain (THD1) (from UniProt P26039 1-405) (domain or fragment)”, the apparent Kd (Kd,app*) in the presence of KIND2 in [1] was 279 µM. The Kd is 254 µM and 320 µM and 262 µM in [2]; 181 µM in [3]; 178 µM and 171 µM and 193 µM in [4].
For TLN1-F3–ΔKIND2 fusion protein, the Kd in experiment [5] was 470 µM; in experiment [6], 4.8 µM. The Kd of the kindlin contribution (fit of concentrations up to 5 µM) in experiment [7] is 2.9 µM. For the same molecule, the Kd of the talin contribution (fit of concentrations above 5 µM) in experiment [7] amounted to 25 µM.

B1: kindlin-2 (KIND2) (natural protein)
chain: MALDGIRMPDGCYADGTWELSVHVTDLNRDVTLRVTGEVHIGGVMLKLVEKLDVKKDWSDHALWWEKKRTWLLKTHWTLDKCGIQADAKLQFTPQHKLLRLQLPNMKYVKVKVNFSDRVFKAVSDICKTFNIRHPEELSLLKKPRDPTKKKKKKLDDQSEDEALELEGPLIMPGSGSIYSSPGLYSKTMTPTYDAHDGSPLSPTSAWFGDSALSEGNPGILAVSQPVTSPEILAKMFKPQALLDKAKTNQGWLDSSRSLMEQDVKENEALLLRFKYYSFFDLNPKYDAIRINQLYEQAKWALLLEEIECTEEEMMMFAALQYHINKLSIMTSENHLNNSDKEVDEVDAALSDLEITLEGGKTSTILGDITSIPELADYIKVFKPKKLTLKGYKQYWCTFKDTSISCYKSREESSGTPAHQLNLRGCEVTPDVNISGQKFNIKLLIPVAEGMNEIWLRCDNEKQYAHWMAACRLASKGKTMADSSYNLEVQNILSFLKMQHLNPDPQLIPDQITTDVNPECLVSPRYLKKYKSKQITARILEAHQNVAQMSLIEAKMRFIQAWQSLPEFGITHFIARFQGGKREELIGIAYNRLIRMDASTGDAIKTWRFSNMKQWNVNWEIKMVTVEFADEVRLSFICTEVDCKVVHEFIGGYIFLSTRAKDQNESLDEEMFYKLTSGWV
On to B1, for which the 50% inhibitory concentration (IC50) (as a rule, the midpoint of a concentration-inhibition curve) in experiment [8] is 0.297 µM and 0.278 µM and 0.387 µM. Besides, the apparent Kd (Kd,app*) in the presence of THD1 in experiment [1] amounted to 6 µM. Moreover, the Kd was 5.47 µM and 5.42 µM and 5.12 µM in experiment [9]; 5 µM in [10]; 6.09 µM and 3.02 µM and 8.05 µM in [11].
Turning to B2, the IC50 was determined as 0.411 µM in experiment [12]; 0.083 µM in experiment [13]; 0.427 µM in [14]; 0.092 µM in [15]; 0.274 µM in experiment [16]; 0.098 µM in experiment [17]. Besides, the IC50 in experiment [18] came to 0.066 µM; in experiment [19] it was 0.307 µM; in [20] it was 0.073 µM.
Take {ATTO 488}-KLLITIHDRKEFAKFEEERARAKWDTANNPLAKEATSTFTNITYRGT [ATTO 488-labelled β3-CT^Y772A]: the Kd in experiment [21] is 511 µM; in the experiment with kindlin-2 (KIND2), 15.5 µM.
